Laboratory results from patent US12163955B2, “Antibodies to methotrexate and uses thereof” (Ark Diagnostics, Inc., priority 2023, dated 2024).
“And” between values parts separate entries of the source, which are not always exact repeats. Equal entries are not always repeated.

Assay: Homogeneous enzyme immunoassay calibration curves with antibody clones and DAMP-Y-S-G6PDH conjugate
Type: biochemical
Method: MTX antibodies and enzyme conjugates may be advantageously used in accordance with the present disclosure in a homogeneous assay format to detect a MTX analyte in samples. Antibodies may be evaluated by known methods, such as, conjugate inhibition, conjugate modulation, calibration, cross-reactivity and spike-recovery. For these purposes, cloned antibodies (28H3-K1, 32H1-K2, 64H1-K1) is added into the antibody diluent to prepare the antibody reagent. The antibody reagent includes antibody as prepared above, buffer, salts, stabilizers, preservatives, NAD^+, and glucose-6-phosphate. Enzyme conjugate DAMP-Y-S-G6PDH is added into the conjugate diluent to prepare the enzyme conjugate reagent. The enzyme conjugate reagent includes the conjugate, buffer, stabilizers, salts, and preservatives.
A clinical chemistry analyzer useful to evaluate antibodies and enzyme conjugates in a homogeneous enzyme immunoassay format is the Beckman Coulter AU480 (Beckman Coulter, Brea, CA). The Beckman AU480 is an automated biochemistry spectrophotometer analyzer used by medical laboratories to process biological fluid specimens, such as urine, cerebrospinal fluid, oral fluids, plasma and serum. The analyzer is capable of maintaining a constant temperature, pipetting samples, mixing reagents, measuring light absorbance and timing the reaction accurately.
A homogeneous enzyme immunoassay is conducted using a liquid, ready-to-use, two reagent assay as described above. Typically, 2-15 μL MTX analyte-containing sample is incubated with 75-150 μL antibody reagent followed by the addition of the 50-100 μL enzyme conjugate reagent.
The assay is a homogeneous enzyme immunoassay technique used for the analysis of MTX in biological fluids. The assay is based on competition between MTX in the specimen and -MTX or MTX analog (DAMP derivatives of the current invention) labeled with the enzyme glucose-6-phosphate dehydrogenase (G6PDH) for antibody binding sites. Enzyme activity decreases upon binding to the antibody, so the drug concentration in the sample can be measured in terms of enzyme activity. Active enzyme converts nicotinamide adenine dinucleotide (NAD^+) to NADH, resulting in an absorbance change that is measured spectrophotometrically at 340 nm. […] The change in the absorbance at 340 nm can be measured spectrophotometrically and is proportional to the enzyme conjugate activity which in turn is related to analyte concentration (see FIG. 14).
MTX analyte antibodies and enzyme conjugate (DAMP-Y-S-G6PDH) were used in a homogeneous assay format to generate calibration curves using MTX standards as described in Example 12. Antibody reagents were prepared as described in Example 8 through 11 using DAMP-Y-KLH generated rabbit antibodies and cloned antibodies through B-cell. Enzyme conjugate DAMP-Y-S-G6PDH was used to prepare the conjugate reagent. A 6-point calibration curve was generated on the Beckman AU480 clinical chemistry analyzer as described in Examples 12. […]

[1] = antibody 200.0 μL/g, Cals 0.00 μM
[2] = antibody 200.0 μL/g, Cals 0.05 μM
[3] = antibody 200.0 μL/g, Cals 0.15 μM
[4] = antibody 200.0 μL/g, Cals 0.50 μM
[5] = antibody 200.0 μL/g, Cals 1.20 μM
[6] = antibody 82.5 μL/g, Cals 0.00 μM
[7] = antibody 82.5 μL/g, Cals 0.05 μM
[8] = antibody 82.5 μL/g, Cals 0.15 μM
[9] = antibody 82.5 μL/g, Cals 0.50 μM
[10] = antibody 82.5 μL/g, Cals 1.20 μM
[11] = antibody 90.0 μL/g, Cals 0.00 μM
[12] = antibody 90.0 μL/g, Cals 0.05 μM
[13] = antibody 90.0 μL/g, Cals 0.15 μM
[14] = antibody 90.0 μL/g, Cals 0.50 μM
[15] = antibody 90.0 μL/g, Cals 1.20 μM
[16] = antibody 100.0 μL/g, Cals 0.00 μM
[17] = antibody 100.0 μL/g, Cals 0.05 μM
[18] = antibody 100.0 μL/g, Cals 0.15 μM
[19] = antibody 100.0 μL/g, Cals 0.50 μM
[20] = antibody 100.0 μL/g, Cals 1.20 μM

B1: 28H3/28K1: rabbit recombinant monoclonal antibody to MTX, VH SEQ ID NO: 1, VL SEQ ID NO: 5 (antibody)
VH: METGPRWLLLVAVLKGVQCQSLEESGGDLVKPGASLALTCKASGLDFSRSDHWICWVRQAPGKGLESIGCIYIGSGTFVRSGTTYYASWAKGRFTISKTSSTTVTLQMTSLTGADTATYFCARGFYATDGYGGPSYLNLWGQGTLVTVSSGQPKAPSVFPLAPCCGDTPSSTVTLGCLVKGYLPEPVTVTWNSGTLTNGVRTFPSVRQSSGLYSLSSVVSVTSSSQPVTCNVAHPATNTKVDKTVAPSTCSKPTCPPPELLGGPSVFIFPPKPKDTLMISRTPEVTCVVVDVSQDDPEVQFTWYINNEQVRTARPPLREQQFNSTIRVVSTLPITHQDWLRGKEFKCKVHNKALPAPIEKTISKARGQPLEPKVYTMGPPREELSSRSVSLTCMINGFYPSDISVEWEKNGKAEDNYKTTPAVLDSDGSYFLYNKLSVPTSEWQRGDVFTCSVMHEALHNHYTQKSISRSPGK
VL: MDTRAPTQLLGLLLLWLPGARCADIVMTQTPASVEAAVGGTVTIKCQASESISSYCSWFQQKPGQPPKLLIYRASTLESGVPSRFKGSGSGTQFTLTISDLECADAATYYCQSYAYSSPDSYGSTFGGGTEVVVKGDPVAPTVLIFPPAADQVATGTVTIVCVANKYFPDVTVTWEVDGTTQTTGIENSKTPQNSADCTYNLSSTLTLTSTQYNSHKEYTCKVTQGTTSVVQSFNRGDC
Antibody 200.0 μL/g, 0.00 to 0.05 μM
  Separation: 43.2 ΔmA/min.
Antibody 200.0 μL/g, 0.00 to 1.20 μM
  Separation: 157.5 ΔmA/min.
Antibody 200.0 μL/g, 0.05 to 0.15 μM
  Separation: 76.3 ΔmA/min.
Antibody 200.0 μL/g, 0.25 to 0.50 μM
  Separation: 0.2 ΔmA/min.
Antibody 200.0 μL/g, 0.50 to 1.20 μM
  Separation: 1.8 ΔmA/min.
[1]
  Absorbance: 0.4534 and 0.4555
  Average Rate: 454.45 mA/min
[2]
  Absorbance: 0.4989 and 0.4964
  Average Rate: 497.65 mA/min
[3]
  Absorbance: 0.5737 and 0.5742
  Average Rate: 573.95 mA/min
[4]
  Absorbance: 0.6112 and 0.6092
  Average Rate: 610.20 mA/min
[5]
  Absorbance: 0.6095 and 0.6144
  Average Rate: 611.95 mA/min

B2: 64H1/64K1: rabbit recombinant monoclonal antibody to MTX, VH SEQ ID NO: 17, VL SEQ ID NO: 21 (antibody)
VH: METGLRWLLLVAVLKGVQCQSLEESGGRLVTPGTPMTLTCTASGFSLVKYYMTWVRQAPGKGLEYIGVIWSGGMTYYASWAKGRFTISRTSTTVDLKIISPTTEDTATYFCARERDYFDGYIGNDIWGQGTLVTVSSGQPKAPSVFPLAPCCGDTPSSTVTLGCLVKGYLPEPVTVTWNSGTLTNGVRTFPSVRQSSGLYSLSSVVSVTSSSQPVTCNVAHPATNTKVDKTVAPSTCSKPTCPPPELLGGPSVFIFPPKPKDTLMISRTPEVTCVVVDVSQDDPEVQFTWYINNEQVRTARPPLREQQFNSTIRVVSTLPITHQDWLRGKEFKCKVHNKALPAPIEKTISKARGQPLEPKVYTMGPPREELSSRSVSLTCMINGFYPSDISVEWEKNGKAEDNYKTTPAVLDSDGSYFLYNKLSVPTSEWQRGDVFTCSVMHEALHNHYTQKSISRSPGK
VL: MDTRAPTQLLGLLLLWLPGATFAQVLTQTPSSVSAAVGGTVTINCQSSQSVWSRHLSWFQQKPGQPPKLLIYKASTLASGVPSRFSGSGSGTQFTLTISDVQCDDAATYYCLGGYTCIRDDCRAFGGGTEVVVKGDPVAPTVLIFPPAADQVATGTVTIVCVANKYFPDVTVTWEVDGTTQTTGIENSKTPQNSADCTYNLSSTLTLTSTQYNSHKEYTCKVTQGTTSVVQSFNRGDC
Antibody 82.5 μL/g, 0.00 to 0.05 μM
  Separation: 39.3 ΔmA/min.
Antibody 82.5 μL/g, 0.00 to 1.20 μM
  Separation: 256.1 ΔmA/min.
Antibody 82.5 μL/g, 0.05 to 0.15 μM
  Separation: 76.7 ΔmA/min.
Antibody 82.5 μL/g, 0.25 to 0.50 μM
  Separation: 55.8 ΔmA/min.
Antibody 82.5 μL/g, 0.50 to 1.20 μM
  Separation: 22.6 ΔmA/min.
[6]
  Absorbance: 0.3378 and 0.3384
  Average Rate: 338.10 mA/min
[7]
  Absorbance: 0.3775 and 0.3772
  Average Rate: 377.35 mA/min
[8]
  Absorbance: 0.4548 and 0.4533
  Average Rate: 454.05 mA/min
[9]
  Absorbance: 0.5708 and 0.5725
  Average Rate: 571.65 mA/min
[10]
  Absorbance: 0.5943 and 0.5941
  Average Rate: 594.20 mA/min
Antibody 90.0 μL/g, 0.00 to 0.05 μM
  Separation: 35.3 ΔmA/min.
Antibody 90.0 μL/g, 0.00 to 1.20 μM
  Separation: 256.5 ΔmA/min.
Antibody 90.0 μL/g, 0.05 to 0.15 μM
  Separation: 69.9 ΔmA/min.
Antibody 90.0 μL/g, 0.25 to 0.50 μM
  Separation: 60.8 ΔmA/min.
Antibody 90.0 μL/g, 0.50 to 1.20 μM
  Separation: 30.8 ΔmA/min.
[11]
  Absorbance: 0.3355 and 0.3373
  Average Rate: 336.40 mA/min
[12]
  Absorbance: 0.3723 and 0.3711
  Average Rate: 371.70 mA/min
[13]
  Absorbance: 0.4421 and 0.4412
  Average Rate: 441.65 mA/min
[14]
  Absorbance: 0.5624 and 0.5618
  Average Rate: 562.10 mA/min
[15]
  Absorbance: 0.5925 and 0.5933
  Average Rate: 592.90 mA/min
Antibody 100.0 μL/g, 0.00 to 0.05 μM
  Separation: 28.3 ΔmA/min.
Antibody 100.0 μL/g, 0.00 to 1.20 μM
  Separation: 250.1 ΔmA/min.
Antibody 100.0 μL/g, 0.05 to 0.15 μM
  Separation: 63.1 ΔmA/min.
Antibody 100.0 μL/g, 0.25 to 0.50 μM
  Separation: 72.9 ΔmA/min.
Antibody 100.0 μL/g, 0.50 to 1.20 μM
  Separation: 38.7 ΔmA/min.
[16]
  Absorbance: 0.3401 and 0.3411
  Average Rate: 340.60 mA/min
[17]
  Absorbance: 0.3679 and 0.3698
  Average Rate: 368.85 mA/min
[18]
  Absorbance: 0.4318 and 0.4320
  Average Rate: 431.90 mA/min
[19]
  Absorbance: 0.5529 and 0.5511
  Average Rate: 552.00 mA/min
[20]
  Absorbance: 0.5913 and 0.5901
  Average Rate: 590.70 mA/min
